From US7005505
Read-outs that look alike come from different tables or passages of the source.

Experiments:
[1] = target: KDR receptors on endothelial cells (bovine); assay: cell-based or functional assay
[2] = target: KDR receptors on endothelial cells (bovine); assay: cell-based or functional assay; remark: listed apart in the source
[3] = target: KDR-IgG (UniProt P35968); assay: competition with 125I-VEGF165 for KDR-IgG, radioligand plate assay
[4] = target: FLT-1 IgG (UniProt P17948); assay: competition with 125I-VEGF165 for FLT-1-IgG, radioligand plate assay
[5] = target: KDR-IgG (UniProt P35968); assay: competition with 125I-VEGF165 for KDR-IgG, radioligand plate assay, no heparin
[6] = target: FLT-1 IgG (UniProt P17948); assay: competition with 125I-VEGF165 for FLT-1-IgG, radioligand plate assay, no heparin

Chain of KDR-IgG (P35968 20-764): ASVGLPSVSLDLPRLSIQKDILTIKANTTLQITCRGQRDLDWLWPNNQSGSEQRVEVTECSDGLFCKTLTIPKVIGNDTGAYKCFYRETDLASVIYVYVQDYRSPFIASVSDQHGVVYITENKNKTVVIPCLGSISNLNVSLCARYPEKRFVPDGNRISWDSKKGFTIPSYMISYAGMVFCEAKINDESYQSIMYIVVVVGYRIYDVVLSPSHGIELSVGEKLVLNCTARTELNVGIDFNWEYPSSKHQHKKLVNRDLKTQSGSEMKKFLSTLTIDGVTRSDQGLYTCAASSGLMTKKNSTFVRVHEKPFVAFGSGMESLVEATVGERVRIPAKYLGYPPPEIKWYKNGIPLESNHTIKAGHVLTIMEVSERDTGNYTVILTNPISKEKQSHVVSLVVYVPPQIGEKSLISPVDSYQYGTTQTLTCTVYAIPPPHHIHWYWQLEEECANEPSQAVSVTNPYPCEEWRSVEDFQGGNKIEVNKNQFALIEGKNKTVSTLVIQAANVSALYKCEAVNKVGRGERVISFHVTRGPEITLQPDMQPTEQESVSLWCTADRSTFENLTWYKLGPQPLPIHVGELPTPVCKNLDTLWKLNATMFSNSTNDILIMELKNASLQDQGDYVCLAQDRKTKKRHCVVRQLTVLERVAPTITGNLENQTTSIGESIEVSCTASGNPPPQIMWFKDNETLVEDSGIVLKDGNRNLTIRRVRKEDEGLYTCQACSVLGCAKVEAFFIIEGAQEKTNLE
Chain of KDR receptors on endothelial cells (bovine) (P12820 29-1306): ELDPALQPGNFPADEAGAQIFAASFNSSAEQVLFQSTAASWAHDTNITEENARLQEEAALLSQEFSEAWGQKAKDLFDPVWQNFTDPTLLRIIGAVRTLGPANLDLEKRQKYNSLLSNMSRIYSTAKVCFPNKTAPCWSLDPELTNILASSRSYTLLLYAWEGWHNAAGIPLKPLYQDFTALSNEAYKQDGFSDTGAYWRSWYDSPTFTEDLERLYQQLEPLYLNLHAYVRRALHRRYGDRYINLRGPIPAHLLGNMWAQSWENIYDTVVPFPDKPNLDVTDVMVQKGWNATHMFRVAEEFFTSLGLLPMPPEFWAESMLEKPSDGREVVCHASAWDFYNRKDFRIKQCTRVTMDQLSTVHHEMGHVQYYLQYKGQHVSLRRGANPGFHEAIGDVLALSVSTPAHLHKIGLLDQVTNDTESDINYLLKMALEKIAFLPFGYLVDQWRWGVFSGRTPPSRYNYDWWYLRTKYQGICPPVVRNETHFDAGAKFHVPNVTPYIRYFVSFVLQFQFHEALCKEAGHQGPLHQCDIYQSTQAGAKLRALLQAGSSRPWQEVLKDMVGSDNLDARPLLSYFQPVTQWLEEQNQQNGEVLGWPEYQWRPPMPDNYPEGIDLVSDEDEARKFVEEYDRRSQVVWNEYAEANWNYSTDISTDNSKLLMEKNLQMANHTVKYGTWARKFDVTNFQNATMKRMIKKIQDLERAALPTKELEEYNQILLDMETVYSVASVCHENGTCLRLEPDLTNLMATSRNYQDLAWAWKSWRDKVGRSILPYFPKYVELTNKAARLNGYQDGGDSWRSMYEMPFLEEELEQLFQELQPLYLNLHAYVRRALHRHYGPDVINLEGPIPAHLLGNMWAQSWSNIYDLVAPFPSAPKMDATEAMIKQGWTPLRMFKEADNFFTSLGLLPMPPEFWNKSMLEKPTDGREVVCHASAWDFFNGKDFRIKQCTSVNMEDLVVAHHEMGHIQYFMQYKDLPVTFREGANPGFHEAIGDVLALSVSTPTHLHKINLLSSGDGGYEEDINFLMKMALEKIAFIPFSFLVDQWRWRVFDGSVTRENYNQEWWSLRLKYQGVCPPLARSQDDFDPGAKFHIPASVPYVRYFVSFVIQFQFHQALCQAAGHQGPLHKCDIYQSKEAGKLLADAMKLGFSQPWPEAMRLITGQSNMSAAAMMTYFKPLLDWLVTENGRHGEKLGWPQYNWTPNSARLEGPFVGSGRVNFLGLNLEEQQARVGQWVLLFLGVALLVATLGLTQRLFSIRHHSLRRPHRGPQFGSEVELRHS
Chain of FLT-1 IgG (P17948 27-758): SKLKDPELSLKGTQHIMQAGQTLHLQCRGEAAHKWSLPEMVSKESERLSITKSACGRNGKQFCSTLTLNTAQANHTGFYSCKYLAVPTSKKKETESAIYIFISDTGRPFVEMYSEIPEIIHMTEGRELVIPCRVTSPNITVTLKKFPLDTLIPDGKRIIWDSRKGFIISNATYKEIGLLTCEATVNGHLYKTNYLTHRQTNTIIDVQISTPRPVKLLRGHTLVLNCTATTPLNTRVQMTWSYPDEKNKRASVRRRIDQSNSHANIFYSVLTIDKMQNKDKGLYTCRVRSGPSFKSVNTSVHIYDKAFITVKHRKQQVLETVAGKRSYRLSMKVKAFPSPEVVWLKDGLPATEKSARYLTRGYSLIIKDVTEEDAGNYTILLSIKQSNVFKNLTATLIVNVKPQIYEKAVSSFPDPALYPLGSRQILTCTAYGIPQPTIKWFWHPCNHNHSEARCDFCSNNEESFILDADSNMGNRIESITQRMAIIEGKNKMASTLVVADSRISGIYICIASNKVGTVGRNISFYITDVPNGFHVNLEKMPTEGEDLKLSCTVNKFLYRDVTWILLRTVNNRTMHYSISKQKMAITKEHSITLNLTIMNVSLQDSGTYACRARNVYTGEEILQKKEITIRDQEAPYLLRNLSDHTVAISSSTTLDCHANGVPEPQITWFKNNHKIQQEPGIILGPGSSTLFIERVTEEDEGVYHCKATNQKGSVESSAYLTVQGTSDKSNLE

Half-Maximal Effective Concentration, Endothelial Cells [1]: 2.05 ng/mL
Half-Maximal Effective Concentration, Endothelial Cells [2]: 53 pM
IC50 [3]: 2.1 ng/mL
IC50 [4]: 0.73 ng/mL
IC50 [5]: 0.026 nM
IC50 [6]: 0.019 nM
Substance: K16A, D19T VEGF (from UniProt P15692 181-395) (ligand)
